Laboratory results: patent US20100247589A1

Tests used:
[1] = target: tooth pellicle (thin film derived from salivary glycoproteins, formed in a human mouth) (human); assay: phage ELISA on pellicle-coated bovine enamel, anti-M13-HRP, normalized to internal control
[2] = target: tooth pellicle (thin film derived from salivary glycoproteins, formed in a human mouth) (human); assay: phage ELISA on pellicle-coated HAP disks, anti-M13-HRP; no-phage control 0.218

B1: DenP9 (peptide)
peptide: HKNAIQPVNDATTLDTTM
O.D.450 (normalized) [1]: 1.36

B2: DenP14 (peptide)
peptide: SEARARTFNDHTTPMPII
O.D.450 (normalized) [1]: 2.5

B3: Pell 2 (peptide)
peptide: ASVSNYPPIHHLATSNTTVN
O.D.450 [2]: 0.75

B4: Pell 9 (peptide)
peptide: GNTDTTPPNAVMEPTVQHKW
O.D.450 [2]: 0.755

B5: DenP19 (peptide)
peptide: TYQGVPSWPAVIDDAIRR
O.D.450 (normalized) [1]: 1.05

B6: DenP15 (peptide)
peptide: ELDHDSRHYMNGLQRKVT
O.D.450 (normalized) [1]: 1.11

B7: DenP25 (peptide)
peptide: ANELSTYAQTNPGSG
O.D.450 (normalized) [1]: 0.909

B8: Pell 11 (peptide)
peptide: NGPEVRQIPANFEKL
O.D.450 [2]: 0.607

B9: DenP18 (peptide)
peptide: KAPIANMLQPHSYQYSVA
O.D.450 (normalized) [1]: 1.14

B10: DenP17 (peptide)
peptide: TTGSSSQADTSASMSIVPAH
O.D.450 (normalized) [1]: 0.971

B11: Pell 17 (peptide)
peptide: QHCITERLHPPCTK
O.D.450 [2]: 0.614

B12: DenP26 (peptide)
peptide: DTIHPNKMKSPSSPL
O.D.450 (normalized) [1]: 1.04

B13: Control (SEQ ID NO: 95) (peptide)
peptide: IPWWNIRAPLNAGGG
O.D.450 (normalized) [1]: 1

B14: Pell 4 (peptide)
peptide: DECMHGSDVEFCTS
O.D.450 [2]: 0.664

B15: DenP29 (peptide)
peptide: QVPDYLSPTHQKKAFLEIPT
O.D.450 (normalized) [1]: 0.976

B16: Pell 5 (peptide)
peptide: DLCSMQMMNTGCHY
O.D.450 [2]: 0.83

B17: DenP11 (peptide)
peptide: DLGTFPNRTLKMAAH
O.D.450 (normalized) [1]: 1.66

B18: DenP12 (peptide)
peptide: FDGIGLGTATRHQNR
O.D.450 (normalized) [1]: 2.08

B19: Pell 20 (peptide)
peptide: WCTDFCTRSTPTSTSRSTTS
O.D.450 [2]: 0.715

B20: DenP32 (peptide)
peptide: HKNENIMQYNVNDRWHITPA
O.D.450 (normalized) [1]: 1.44

B21: DenP21 (peptide)
peptide: DHNNRQHAVEVRENKTHTAR
O.D.450 (normalized) [1]: 0.728

B22: Pell 18 (peptide)
peptide: TPCAPASFNPHCSR
O.D.450 [2]: 0.416

B23: DenP23 (peptide)
peptide: HDPNHLTHQARTIYRNANHT
O.D.450 (normalized) [1]: 1.24

B24: Pell 10 (peptide)
peptide: NGPDMVQSVGKHKNS
O.D.450 [2]: 0.729

B25: DenP1 (peptide)
peptide: NGNNHTDIPNRSSYTGGSFA
O.D.450 (normalized) [1]: 1

B26: Pell 8 (peptide)
peptide: EPTHPTMRAQMHQSLRSSSP
O.D.450 [2]: 0.712

B27: DenP24 (peptide)
peptide: SNATMYNIQSHSHHQ
O.D.450 (normalized) [1]: 0.979

B28: Pell 13 (peptide)
peptide: NNTWPEGAGHTMPSTNIRQA
O.D.450 [2]: 0.598

B29: Pell 1 (peptide)
peptide: AHPESLGIKYALDGNSDPHA
O.D.450 [2]: 0.739

B30: DenP8 (peptide)
peptide: GMPTRYYHNTPPHLTPKF
O.D.450 (normalized) [1]: 1.18

B31: DenP13 (peptide)
peptide: QAAQVHMMQHSRPTT
O.D.450 (normalized) [1]: 0.845

B32: DenP10 (peptide)
peptide: AVVPADLNDHANHLS
O.D.450 (normalized) [1]: 1.62

B33: Pell 3 (peptide)
peptide: DECMEPLNAAHCWR
O.D.450 [2]: 0.49

B34: DenP28 (peptide)
peptide: APPTYQTASYPHNLPSKRKM
O.D.450 (normalized) [1]: 1.2

B35: DenP30 (peptide)
peptide: TNDLHANPFTGTYIAPDPTS
O.D.450 (normalized) [1]: 1.08

B36: DenP16 (peptide)
peptide: GPQHVLMQDTHQGYAFDN
O.D.450 (normalized) [1]: 2.19

B37: Pell 19 (peptide)
peptide: TPCATYPHFSGCRA
O.D.450 [2]: 0.731

B38: Pell 14 (peptide)
peptide: NPTATPHMKDPMHSNAHSSA
O.D.450 [2]: 0.7

B39: DenP4 (peptide)
peptide: VEPATKNMREARSSTQMRRI
O.D.450 (normalized) [1]: 1.42

B40: Pell 12 (peptide)
peptide: NNTSADNPPETDSKHHLSMS
O.D.450 [2]: 0.521

B41: DenP22 (peptide)
peptide: IYPNESMSTSNVRGPYHP
O.D.450 (normalized) [1]: 1.42

B42: DenP7 (peptide)
peptide: EFPYYNDNPPNPERHTLR
O.D.450 (normalized) [1]: 1.5

B43: DenP2 (peptide)
peptide: TMTNHVYNSYTEKHSSTHRS
O.D.450 (normalized) [1]: 1.95

B44: DenP20 (peptide)
peptide: VNPNWVETQALHQPPGNT
O.D.450 (normalized) [1]: 1.3

B45: Pell 6 (peptide)
peptide: DLCSSPSTWGSCIR
O.D.450 [2]: 0.735

B46: Pell 16 (peptide)
peptide: NPTDSTHMMHARNHE
O.D.450 [2]: 0.578

B47: Pell 7 (peptide)
peptide: DPNESNYENATTVSQPTRHL
O.D.450 [2]: 0.831

B48: Pell 15 (peptide)
peptide: NPTDHIPANSTNSRVSKGNT
O.D.450 [2]: 0.567

B49: DenP5 (peptide)
peptide: YLLPKDQTTAPQVTPIVQHK
O.D.450 (normalized) [1]: 1.09
